The record followed here is paper PMC4377584, “Sestrin2 inhibits mTORC1 through modulation of GATOR complexes” (Scientific Reports, 2015).

In this test the target is T1, HA-GATOR2 (UniProt Q9NXC5 1-875; Q96S15 1-790; Q6PJI9 1-974; Q96EE3 1-360; P55735 1-322).
T1 construct: MIOS; WDR24; WDR59; SEH1L; SEC13; that every subunit carried the HA tag is read from the name HA-GATOR2; also called immunopurified GATOR2 protein components; purified GATOR2; source: HEK293, transfected, immunopurified (anti-HA agarose beads, HA peptide); copies: + + + +
The test is described as follows: pull-down; in vitro: purified proteins mixed in 20 ul buffer A (30 mM Tris-HCl pH8.0, 100 mM NaCl, 1 mM TCEP), incubated overnight with antibodies against the target protein, protein G/A bead, immunoblot; 1 ug Sestrin2; in Fig. 2D GATOR1 pulled down with NPRL2 antibody and detection with HA antibody. To be noted: both partners purified. For orientation: A western blot detects proteins with antibodies after separation by electrophoresis.

B1: Recombinant Sestrin2 (natural protein, UniProt P58004 1-480, looked up)
chain: MIVADSECRAELKDYLRFAPGGVGDSGPGEEQRESRARRGPRGPSAFIPVEEVLREGAESLEQHLGLEALMSSGRVDNLAVVMGLHPDYFTSFWRLHYLLLHTDGPLASSWRHYIAIMAAARHQCSYLVGSHMAEFLQTGGDPEWLLGLHRAPEKLRKLSEINKLLAHRPWLITKEHIQALLKTGEHTWSLAELIQALVLLTHCHSLSSFVFGCGILPEGDADGSPAPQAPTPPSEQSSPPSRDPLNNSGGFESARDVEALMERMQQLQESLLRDEGTSQEEMESRFELEKSESLLVTPSADILEPSPHPDMLCFVEDPTFGYEDFTRRGAQAPPTFRAQDYTWEDHGYSLIQRLYPEGGQLLDEKFQAAYSLTYNTIAMHSGVDTSVLRRAIWNYIHCVFGIRYDDYDYGEVNQLLERNLKVYIKTVACYPEKTTRRMYNLFWRHFRHSEKVHVNLLLLEARMQAALLYALRAITRYMT
notes: Full-length Sestrin2 cDNA; also called Sestrin2 protein; purified Sestrin2; source: Rosetta (DE3) pLysS E. coli, purified (Ni-NTA, amylase resin, TEV, HiTrap Q, Superdex 200); not shown: His6, N-terminal, cleaved; MBP, N-terminal, cleaved
As for B1, the binding result was “binds”.
